Patent US20240336900A1, “METHODS AND COMPOSITIONS RELATED TO MODIFIED METHYLTRANSFERASES AND ENGINEERED BIOSENSORS” (BOARD OF REGENTS, THE UNIVERSITY OF TEXAS SYSTEM, priority 2023, published 2024)
Numbering of substitutions follows the chain as printed. In names and notes the source's numbering stands.

How the values were obtained:
[1] = Sensitivity and selectivity of evolved RamR sensor variants; format: cell-based, Escherichia coli
Experimental: Cell culture (20 μl) bearing the sensor library was seeded into 5 ml fresh LB containing appropriate antibiotics, 100 μg ml-1 zeocin (Thermo Fisher, R25001) and 100 uM of norbelladine (for round two) and grown at 37° C. for 7 h. Following incubation, 0.5 μl of culture was diluted into 1 ml LB medium, from which 100 μl was further diluted into 900 μl LB medium. Three hundred microliters of this mixture was then plated across three LB agar plates (100 μL per plate) containing carbenicillin, chloramphenicol and 4NB dissolved in DMSO. Plates were incubated overnight at 37° C. The following day, the brightest colonies were picked and grown overnight in 1 ml LB medium containing appropriate antibiotics in a 96-deep-well plate sealed with an AeraSeal film at 37° C. A glycerol stock of cells containing pSELIS-RamR and pReg-RamR encoding the template RamR variant was also inoculated into 5 ml LB for overnight growth.
The following day, 20 μl of each culture was used to inoculate two separate wells in a new 96-deep-well plate containing 900 μl LB medium. Additionally, eight separate wells containing 1 ml LB medium were inoculated with 20 μl of the overnight culture expressing the parental RamR variant. After 2 h of growth at 37° C., the top half of the 96-well plate was induced with 100 μl LB medium containing 10 μl DMSO, whereas the bottom half of the plate was induced with 100 μl LB medium containing 4NB dissolved in 10 μl DMSO. The concentration of 4NB used for induction is typically the same concentration used in the LB agar plate for screening during that particular round of evolution. Cultures were grown for an additional 4 h at 37° C. and 250 r.p.m. and subsequently centrifuged (3,500 g, 4° C., 10 min). Supernatant was removed, and cell pellets were resuspended in 1 ml PBS. One hundred microliters of the cell resuspension for each condition was transferred to a 96-well microtiter plate, from which the fluorescence (excitation, 485 nm; emission, 509 nm) and absorbance (600 nm) were measured using the Tecan Infinite M1000 plate reader. Clones with the highest signal-to-noise ratio (generally the top 5-10% of the screened clones) were then sequenced and subcloned into a fresh pReg-RamR vector.
For sensor variant validation, the subcloned pReg-RamR vectors expressing the sensor variants were transformed into DH10B cells expressing Pramr-GFP. […]
Glycerol stocks (20% glycerol) of strains containing the plasmids of interest were inoculated into 1 ml LB medium and grown overnight at 37° C. […] The cell resuspension (100 μl) for each condition was transferred to a 96-well microtiter plate, from which the fluorescence (excitation, 485 nm; emission, 509 nm) and absorbance (600 nm) were measured using the Tecan Infinite M1000 plate reader.

[2] = Biosensor-linked O-methyltransferase activity assay; format: cell-based, Escherichia coli; conditions: single mutational designs; 25, 30, 37 °C; 100 uM, 1 mM norbelladine
Experimental: Nb4OMT was expressed with the P150-RBS (riboJ) promoter-RBS on the pReg-RamR plasmid backbone (no regulator present). Cells were co-transformed with both the 40MT plasmid and the 4NB reporter plasmid and plated on an LB agar plate containing appropriate antibiotics. Three individual colonies from each transformation were picked into LB and grown overnight. Resulting cultures were diluted 50-fold into 1 ml LB medium containing the indicated concentration of norbelladine in a 96-deep-well plate and were grown at the indicated temperature for 24 h. Subsequently, the fluorescence of cultures was measured in the same manner as previously described in Dose-response measurement above.

[3] = Steady state kinetics of purified Nb4OMT variants; format: biochemical
Experimental: Reactions for kinetics measurements were performed in triplicate for all enzyme variants. For each variant 1.5 ml reactions containing 3.5 nM of enzyme, 500 μM SAM, 2 mM CaCl2), and 15.625, 31.25, 62.5, 125, 250, or 500 μM norbelladine in PBS pH 7.5 were incubated at 37° C. for 4 hours. Every hour a 200 μl aliquot of each reaction was quenched by pipetting it into a 1.5 ml microcentrifuge tube with 20 μl of 2M HCl. The concentration of 4′-O-Methylnorbelladine was then determined using HPLC as described.
Kinetic data were fit in KinTek Explorer simulation and data fitting software v11 (Roy, 2018). The following minimal model was used as an input. Each line represents a step in the model and the forward reaction goes from left to right while the reverse reaction goes from right to left as written. • (1) E+S=ES • (2) ES=EP • (3) EP=E+P • (4) S=P2
3.5 nM enzyme and 15.625, 31.25, 62.5, 125, 250, and 500 M substrate. The output observable was defined as EP+P. Substrate oxidation was modeled in step (4) as irreversible with a best fit value from globally fitting data from all variants to derive k4=0.00547 min^−1.To get kout/Km and kcat: k−1, k−2, and k−3 were locked at 0 min-1 (irreversible reactions). k+3 was locked at 10,000 min-1 as to not limit the rate of turnover. k+1 and k+2 were used as variable parameters in the fitting. Under these conditions, k+2=kcat and k+1=kcat/Km. For estimates of 95% confidence intervals on kinetic parameters, confidence contour analysis was used with the FitSpace function in KinTek Explorer (Bhattacharya, 2015). Confidence contour plots are calculated by systematically varying a single rate constant and holding it fixed at a particular value while refitting the data, allowing other rate constants to float. The goodness of fit was scored by the resulting χ^2 value. The confidence interval is defined based on a threshold in χ^2 calculated from the F-distribution based on the number of data points and number of variable parameters to give the 95% confidence limits. For the data given in FIGS. 20A-20C, this threshold was 0.85 to estimate the upper and lower limits for each parameter. […] We then fit the data for these two variants to the model shown below, accounting for substrate inhibition.
As before, k+1 was allowed to float in the fitting to give kcat/Km, and k−1 was locked at 0 min^−1, k+2 was allowed to float in the fitting to give kcat, and k−2 was locked at 0 min^−1. k+3 was locked at 10,000 min^−1, and k−3 was locked at 0 min^−1. k+4 and k+6 were locked at 100 μM^−1 min^−1, and k−4 and k−6 were allowed to float in the fitting as linked parameters. k+5 was linked to k+1 and k−5 was locked at 0 min^−1. k−7 was locked at 0 min^−1, and k+7 was locked at 0.00547 min^−1.

[4] = Differential scanning fluorimetry; format: physicochemical
Experimental: Purified Nb4OMT variants in the concentration of 5 μM were prepared in 96-well low-profile PCR plates (ABgene, Thermo Scientific). 10×SYPRO® Orange (Molecular Probes) was added into each well and mixed prior to measurement in an RT-PCR machine (LightCycler 480, Roche). The protein melting experiments were carried out with a continuous temperature acquisition mode using 10 acquisitions per 1° C. in each cycle from 20° C. to 95° C. The melting curves of the Nb4OMT variants were monophasic and Tm values were derived using Boltzmann equation.

B1: 4NB1.2: RamR variant bearing two amino acid substitutions, K63T and L66M (protein)
chain: MVARPKSEDKKQALLEAATQAIAQSGIAASTAVIARNAGVAEGTLFRYFATKDELINTLYLHLTQDMCQSMIMELDRSITDAKMMTRFIWNSYISWGLNHPARHRAIRQLAVSEKLTKETEQRADDMFPELRDLCHRSVLMVFMSDEYRAFGDGLFLALAETTMDFAARDPARAGEYIALGFEAMWRALTREEQ
modifications: Description of sequence: Improved biosensor variant K63T, L66M
selectivity for 4NB over norbelladine [1]: 20 fold

B2: 4NB2.1: evolved RamR biosensor variant, K63T, L66M, C134D and S137G (protein)
chain: B1 chain with C135D, S138G
modifications: Description of sequence: Improved biosensor variant K63T, L66M, C134D, S137G
selectivity for 4NB over norbelladine [1]: over 80 fold | sensitivity relative to the HPLC method [1]: approximately 10 fold | limit of detection ([1]; 4NB): approximately 2.5 uM

B3: H17K: Nb4OMT variant with mutation H17K (protein)
chain: MGASIDDYSLVHKNILKSEDLLKYILETSAYPREHEQLKGLREVTEKHEWSSALVPADEGLFLSMLLKLMNAKRTIEIGVYTGYSLLTTALALPEDGKITAIDVNKSYYEIGLPFIQKAGVEHKINFIESEALPVLDQMLEEMKEEDLYDYAFVDADKSNYANYHERLVKLVRIGGAILYDNTLWYGSVAYPEYPGLHPEEEVARLSFRNLNTFLAADPRVEISQVSIGDGVTICRRLY
modifications: Description of sequence: Improved enzyme variant H17K
fluorescent signal relative to the wild-type enzyme [2]: above wild-type in at least one tested condition

B4: E36P/G40E/A53M mutant: Nb4OMT variant with mutations E36P, G40E and A53M (protein)
chain: B3 chain with K17H, E36P, G40E, A53M
kcat ([3]; 3.5 nM enzyme, 500 μM SAM, 37° C., PBS pH 7.5): >2 s⁻¹ | Km ([3]; calculated by dividing kcat by kcat/Km): < 83 µM | substrate inhibition ([3]; steady state kinetic data, highest norbelladine concentration): affected by substrate inhibition | increase in Tm relative to the wild-type enzyme [4]: 5.6 °C | Tm ([4]; 5 μM protein, SYPRO Orange): 58.4 °C

B5: H17R: Nb4OMT variant with mutation H17R (protein)
chain: B3 chain with K17R
modifications: Description of sequence: Improved enzyme variant H17R Mutation
fluorescent signal relative to the wild-type enzyme [2]: above wild-type in at least one tested condition

B6: A53R: Nb4OMT variant with substitution A53R, predicted without docking (protein)
chain: B3 chain with K17H, A53R
fluorescent signal relative to the wild-type enzyme [2]: reduced activity under all tested conditions

B7: S159E: Nb4OMT variant with mutation S159E (protein)
chain: B3 chain with K17H, S159E
modifications: Description of sequence: Improved enzyme variant S159E
fluorescent signal relative to the wild-type enzyme [2]: above wild-type in at least one tested condition

B8: E36P-G40E: Nb4OMT variant with mutations E36P and G40E (protein)
chain: B3 chain with K17H, E36P, G40E
modifications: Description of sequence: Improved enzyme variant E36P-G40E
fluorescent signal relative to the wild-type enzyme [2]: above wild-type in at least one tested condition

B9: V203E: Nb4OMT variant with mutation V203E (protein)
chain: B3 chain with K17H, V203E
modifications: Description of sequence: Improved enzyme variant V203E
fluorescent signal relative to the wild-type enzyme [2]: above wild-type in at least one tested condition
